The results in this text go back to US20160039895A1 (published 2016).

Assay [1] deals with T1, α5β1 integrin on wild-type K562 cells (UniProt P08648 42-1049; P05556 21-798, limits assumed).
T1 construct: whole, on cells
Kind of assay: flow cytometry on wild-type K562 cells.

The target in assay [2] is T2, human αvβ3 integrin on cells (human, UniProt P06756 31-1048; P05106 27-788).
T2 construct: whole, on cells; also called avb3; alpha v beta 3
Kind of assay: flow cytometry on U87MG cells (no VEGFR2; receptor not named by the filing).

In assay [3] the target is T3, αiibβ3 integrin on transfected K562 cells (UniProt P08514 32-1039; P05106 27-788, limits assumed).
T3 construct: whole, on cells
T3 sequence (P08514 32-1039 limits assumed, chain 1 of 2): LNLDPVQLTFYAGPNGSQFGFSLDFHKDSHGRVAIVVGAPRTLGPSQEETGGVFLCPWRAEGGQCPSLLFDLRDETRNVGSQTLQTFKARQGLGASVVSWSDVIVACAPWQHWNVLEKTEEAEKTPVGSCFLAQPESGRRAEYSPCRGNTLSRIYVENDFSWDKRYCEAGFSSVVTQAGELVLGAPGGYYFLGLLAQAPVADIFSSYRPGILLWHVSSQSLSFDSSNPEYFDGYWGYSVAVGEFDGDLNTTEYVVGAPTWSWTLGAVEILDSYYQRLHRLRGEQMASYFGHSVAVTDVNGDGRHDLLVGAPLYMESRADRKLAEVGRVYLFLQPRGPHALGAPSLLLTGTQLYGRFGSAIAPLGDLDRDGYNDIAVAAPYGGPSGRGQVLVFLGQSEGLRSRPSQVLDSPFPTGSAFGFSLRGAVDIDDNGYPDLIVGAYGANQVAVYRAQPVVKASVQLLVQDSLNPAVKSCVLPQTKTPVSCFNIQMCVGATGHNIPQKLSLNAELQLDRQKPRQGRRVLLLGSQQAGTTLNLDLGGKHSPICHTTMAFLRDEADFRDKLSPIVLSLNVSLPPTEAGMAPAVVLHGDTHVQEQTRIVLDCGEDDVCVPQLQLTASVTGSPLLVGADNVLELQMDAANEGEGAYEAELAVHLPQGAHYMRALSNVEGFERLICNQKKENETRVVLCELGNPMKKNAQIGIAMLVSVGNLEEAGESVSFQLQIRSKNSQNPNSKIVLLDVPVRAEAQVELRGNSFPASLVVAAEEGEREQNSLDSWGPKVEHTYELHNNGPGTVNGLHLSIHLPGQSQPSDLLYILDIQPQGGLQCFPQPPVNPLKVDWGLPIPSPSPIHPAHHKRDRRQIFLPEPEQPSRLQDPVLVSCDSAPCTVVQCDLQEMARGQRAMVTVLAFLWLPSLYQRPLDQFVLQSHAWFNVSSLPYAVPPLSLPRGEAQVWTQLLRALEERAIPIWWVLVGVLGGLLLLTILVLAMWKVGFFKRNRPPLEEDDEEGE
T3 sequence (P05106 27-788 limits assumed, chain 2 of 2): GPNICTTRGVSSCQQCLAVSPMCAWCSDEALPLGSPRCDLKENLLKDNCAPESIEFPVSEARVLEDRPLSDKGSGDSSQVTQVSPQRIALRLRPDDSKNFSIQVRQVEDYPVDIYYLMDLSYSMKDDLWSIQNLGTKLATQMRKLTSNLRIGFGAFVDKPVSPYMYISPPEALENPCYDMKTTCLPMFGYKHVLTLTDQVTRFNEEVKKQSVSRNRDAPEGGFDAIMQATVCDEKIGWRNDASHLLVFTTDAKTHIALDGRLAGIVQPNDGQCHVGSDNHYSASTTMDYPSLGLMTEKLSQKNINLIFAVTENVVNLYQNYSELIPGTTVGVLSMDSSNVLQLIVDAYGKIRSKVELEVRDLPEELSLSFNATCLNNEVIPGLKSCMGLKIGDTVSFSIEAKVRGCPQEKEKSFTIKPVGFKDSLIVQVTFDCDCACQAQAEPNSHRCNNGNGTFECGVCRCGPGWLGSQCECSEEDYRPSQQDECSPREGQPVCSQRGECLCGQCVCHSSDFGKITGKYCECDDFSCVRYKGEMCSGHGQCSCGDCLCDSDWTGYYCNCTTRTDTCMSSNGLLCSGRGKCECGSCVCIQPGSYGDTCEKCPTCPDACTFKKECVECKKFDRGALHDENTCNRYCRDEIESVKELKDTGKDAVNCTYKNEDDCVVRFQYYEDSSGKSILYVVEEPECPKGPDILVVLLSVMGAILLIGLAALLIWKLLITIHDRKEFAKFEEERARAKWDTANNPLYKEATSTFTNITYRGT
The experiment in a line: flow cytometry on K562 cells transfected with αiibβ3. (A flow cytometer gives signals particle by particle.)

The target in assay [4] is T4, human VEGFR2 on cells (PAE/KDR cells, HUVEC) (human, UniProt P35968 20-1356).
T4 construct: whole, on cells
T4 sequence (P35968 20-1356): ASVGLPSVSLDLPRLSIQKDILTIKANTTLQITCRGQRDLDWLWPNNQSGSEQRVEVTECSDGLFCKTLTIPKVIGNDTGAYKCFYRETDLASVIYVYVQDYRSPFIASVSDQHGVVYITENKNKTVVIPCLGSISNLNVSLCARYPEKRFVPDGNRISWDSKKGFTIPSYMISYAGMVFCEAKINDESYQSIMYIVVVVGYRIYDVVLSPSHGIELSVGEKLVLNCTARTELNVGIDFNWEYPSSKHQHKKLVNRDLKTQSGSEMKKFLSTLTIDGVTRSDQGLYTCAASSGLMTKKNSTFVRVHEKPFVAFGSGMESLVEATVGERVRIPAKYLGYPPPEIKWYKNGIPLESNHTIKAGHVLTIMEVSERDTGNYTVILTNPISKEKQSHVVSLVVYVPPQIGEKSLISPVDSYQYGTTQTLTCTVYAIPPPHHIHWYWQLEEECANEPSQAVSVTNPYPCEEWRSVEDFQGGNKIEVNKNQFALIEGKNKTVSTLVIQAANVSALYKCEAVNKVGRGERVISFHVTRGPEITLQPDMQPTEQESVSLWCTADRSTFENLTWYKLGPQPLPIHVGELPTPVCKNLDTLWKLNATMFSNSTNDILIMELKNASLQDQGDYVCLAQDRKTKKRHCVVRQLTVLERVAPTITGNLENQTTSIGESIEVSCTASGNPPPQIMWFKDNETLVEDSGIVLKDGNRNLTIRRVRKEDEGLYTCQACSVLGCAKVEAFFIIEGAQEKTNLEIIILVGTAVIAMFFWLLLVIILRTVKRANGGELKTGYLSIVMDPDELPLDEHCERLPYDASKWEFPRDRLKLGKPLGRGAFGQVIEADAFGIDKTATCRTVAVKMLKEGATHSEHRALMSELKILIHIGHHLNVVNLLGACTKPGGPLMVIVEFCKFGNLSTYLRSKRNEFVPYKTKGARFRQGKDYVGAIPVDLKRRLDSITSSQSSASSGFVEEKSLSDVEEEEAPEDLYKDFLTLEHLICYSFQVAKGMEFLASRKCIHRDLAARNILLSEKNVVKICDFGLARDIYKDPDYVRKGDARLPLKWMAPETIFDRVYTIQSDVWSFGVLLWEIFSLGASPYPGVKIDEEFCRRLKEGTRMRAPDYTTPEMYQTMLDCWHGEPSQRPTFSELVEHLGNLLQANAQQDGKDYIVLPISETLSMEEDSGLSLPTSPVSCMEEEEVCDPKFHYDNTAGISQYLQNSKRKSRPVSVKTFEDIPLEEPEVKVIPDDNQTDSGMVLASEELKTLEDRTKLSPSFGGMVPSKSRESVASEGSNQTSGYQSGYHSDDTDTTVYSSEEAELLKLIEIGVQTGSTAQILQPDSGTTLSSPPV
Kind of assay: flow cytometry titration on PAE/KDR cells, anti-FLAG detection.

Assay [5] concerns the target T5, VEGFR2 on SVR angiosarcoma cells (murine cell line) (murine, UniProt P35918 20-1345).
T5 construct: whole, on cells
Kind of assay: flow cytometry on SVR cells.

Assay [6] has as its target T6, porcine αvβ3 integrin on PAE cells (porcine, UniProt A0A5K1V6L8 31-1052; A0A8D0RDV2 33-793).
T6 construct: whole, on cells
Kind of assay: flow cytometry on PAE cells.

Assay [7] addresses T7, αvβ5 integrin on transfected K562 cells (UniProt P06756 31-1048; P18084 24-799, limits assumed).
T7 construct: whole, on cells
Kind of assay: flow cytometry on K562 cells transfected with αvβ5.

The target of assay [8] is T8, recombinant human VEGFR2 extracellular domain (human, UniProt P35968 20-764).
T8 construct: extracellular domain; also called KDR; Flk-1
T8 sequence (P35968 20-764): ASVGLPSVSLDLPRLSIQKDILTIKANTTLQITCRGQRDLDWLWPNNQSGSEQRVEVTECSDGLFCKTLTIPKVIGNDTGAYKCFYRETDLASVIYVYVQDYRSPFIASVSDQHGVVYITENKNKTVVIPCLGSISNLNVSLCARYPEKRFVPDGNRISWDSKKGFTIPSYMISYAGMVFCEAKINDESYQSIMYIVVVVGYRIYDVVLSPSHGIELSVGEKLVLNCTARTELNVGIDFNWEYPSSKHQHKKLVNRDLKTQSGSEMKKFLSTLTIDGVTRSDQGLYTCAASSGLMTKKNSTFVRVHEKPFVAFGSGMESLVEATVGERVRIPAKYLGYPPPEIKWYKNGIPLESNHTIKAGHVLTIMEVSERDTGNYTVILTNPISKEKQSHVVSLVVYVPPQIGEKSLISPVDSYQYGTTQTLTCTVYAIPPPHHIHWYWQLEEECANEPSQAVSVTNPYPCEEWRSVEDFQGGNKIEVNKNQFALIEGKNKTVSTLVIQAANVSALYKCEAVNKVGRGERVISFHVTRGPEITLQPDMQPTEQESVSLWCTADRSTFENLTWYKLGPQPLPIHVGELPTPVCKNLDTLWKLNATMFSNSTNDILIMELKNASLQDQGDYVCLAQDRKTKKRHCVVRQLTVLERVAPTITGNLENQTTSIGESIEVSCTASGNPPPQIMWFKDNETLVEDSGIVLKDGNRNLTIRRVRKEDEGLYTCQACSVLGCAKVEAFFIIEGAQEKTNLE
Kind of assay: SPR (BIAcore 3000), VEGFR2 amine-coupled to CM5 chip, scVEGF as analyte, 1:1 model. (In SPR one partner is held on a chip, and binding of the other changes the refractive index at the surface.)

Assay [9] addresses T5, VEGFR2 on SVR angiosarcoma cells …. Kind of assay: flow cytometry titration on SVR cells, anti-FLAG detection.
Assay [10] deals with T2, human αvβ3 integrin on cells. The experiment in a line: flow cytometry on K562-αvβ3 cells.
Assay [11] concerns the target T4, human VEGFR2 on cells (PAE/KDR cells, …). Kind of assay: flow cytometry titration on HUVEC, anti-FLAG detection.

T2 sequence (P06756 31-1048, chain 1 of 2): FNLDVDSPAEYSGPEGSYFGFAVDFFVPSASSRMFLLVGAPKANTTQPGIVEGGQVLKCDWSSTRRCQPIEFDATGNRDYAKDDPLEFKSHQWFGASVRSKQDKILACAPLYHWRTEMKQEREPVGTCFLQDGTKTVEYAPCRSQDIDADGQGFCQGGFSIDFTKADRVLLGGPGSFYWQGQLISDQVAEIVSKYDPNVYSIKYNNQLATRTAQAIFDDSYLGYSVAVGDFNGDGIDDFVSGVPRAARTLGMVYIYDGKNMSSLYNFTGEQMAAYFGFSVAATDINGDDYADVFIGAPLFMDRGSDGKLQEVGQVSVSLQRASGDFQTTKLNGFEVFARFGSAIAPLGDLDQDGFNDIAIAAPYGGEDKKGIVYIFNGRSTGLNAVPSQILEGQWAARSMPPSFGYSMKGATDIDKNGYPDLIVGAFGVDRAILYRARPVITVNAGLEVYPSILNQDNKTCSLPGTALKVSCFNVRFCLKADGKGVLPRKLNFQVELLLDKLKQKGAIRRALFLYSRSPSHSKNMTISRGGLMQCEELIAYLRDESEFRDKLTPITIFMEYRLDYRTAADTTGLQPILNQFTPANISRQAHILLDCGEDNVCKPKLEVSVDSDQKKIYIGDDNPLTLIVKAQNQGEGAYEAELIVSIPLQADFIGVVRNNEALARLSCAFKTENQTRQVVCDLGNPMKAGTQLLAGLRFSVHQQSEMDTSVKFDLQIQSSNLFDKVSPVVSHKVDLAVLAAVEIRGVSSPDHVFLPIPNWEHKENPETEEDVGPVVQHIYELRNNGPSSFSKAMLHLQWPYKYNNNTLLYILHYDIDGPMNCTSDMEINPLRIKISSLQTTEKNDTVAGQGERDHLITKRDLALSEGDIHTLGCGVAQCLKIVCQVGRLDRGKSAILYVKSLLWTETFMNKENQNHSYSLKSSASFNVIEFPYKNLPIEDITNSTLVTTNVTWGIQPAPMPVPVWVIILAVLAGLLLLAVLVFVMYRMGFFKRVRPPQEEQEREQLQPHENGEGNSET
T2 sequence (P05106 27-788, chain 2 of 2): as the sequence (P05106 27-788 limits assumed, chain 2 of 2) above

B1: scVEGF-mM (designed binder)
chain: EVVKAMDVYRRSYCHPVETSVDILQEYPDEIEYIFKPSCVPLMRCGGCCNDAGLECVPTEESNTTMQIMRIKPYRGQHIGEMSFLQHNKCECRPKKDGSTSGSGKSSEGKGEVVKFMDVYQRSYCHPIETLVDIFQEYPDEIEYAFKPSCVSLMRCGGCCNNEGLECVPTEESNITVQIMGAKPHQGQHIGEMSFLQHNKCECRPKKD
notes: Soluble protein with C-terminal hexahistidine tag, with or without N-terminal FLAG tag (tags not included in the parts); also called scVEGFmut-M
In the case of B1, the binding result is “no binding” in assay [1]; “no binding (tested: 1 µM)” in assay [2]; “no binding” in [3]; “no binding (tested: 1 µM)” in [5]; “no binding (tested: 1 µM)” in [6]; “no binding” in [7]. In addition, the values for the Kd in assay [4] and in assay [8] were 34 nM and 3.8 nM, respectively. The koff – broadly, the first-order rate constant of dissociation – in assay [8] stood at 0.00108 s⁻¹. Moreover, the kon (commonly the rate constant with which the complex forms) in assay [8] is 290000 M⁻¹ s⁻¹.

B2: scVEGFwt (ligand)
chain: YVEVVKFMDVYQRSYCHPIETLVDIFQEYPDEIEYIFKPSCVPLMRCGGCCNDEGLECVPTEESNITMQIMRIKPHQGQHIGEMSFLQHNKCECRPKKDGSTSGSGKSSEGKGEVVKFMDVYQRSYCHPIETLVDIFQEYPDEIEYIFKPSCVPLMRCGGCCNDEGLECVPTEESNITMQIMRIKPHQGQHIGEMSFLQHNKCECRPKKDTR
notes: also called wild-type scVEGF; single-chain VEGF
Consider B2, for which the Kd (as a rule, the equilibrium constant for the complex coming apart) came out at 32 nM in assay [9], 28 nM in [11], 9.8 nM in assay [4] and 4 nM in assay [8]. The binding result in assay [10] and in [6] was “no binding (tested: 1 µM)” throughout. Moreover, in assay [8], the koff was determined as 0.0007 s⁻¹. Further, the kon in assay [8] came out at 200000 M⁻¹ s⁻¹.
